In patent US20100284934A1:

Assays:
[1] = target: dopamine treated recombinant human α-synuclein (soluble aggregates, oligomers) (human) (UniProt P37840); experiment: ELISA, α-synuclein coated, peptide in solution
[2] = target: aggregated recombinant human α-synuclein produced by aging (amyloid fibrils) (human) (UniProt P37840); experiment: ELISA, α-synuclein coated at 200 pmol/well, range of peptide concentrations
[3] = target: aggregated recombinant human α-synuclein produced by aging (amyloid fibrils) (human) (UniProt P37840); experiment: ELISA, α-synuclein coated at 100 pmol/well, range of peptide concentrations

lowest binding concentration detected [1] [pmol/well]	lowest binding concentration detected [2] [pmol/well]	lowest binding concentration detected [3] [pmol/well]	Substance
1	10		OR5, Gd-DOTA-r-Sar-vva-Sar-K(biotin)-rrrrrr (peptide)
	10		OR3, Gd-DOTA-rrrrrrGtvvaGK(biotin)-r (peptide)

Further lines, the substance ahead of its results:

Substance	lowest binding concentration detected [1] [pmol/well]	lowest binding concentration detected [2] [pmol/well]	lowest binding concentration detected [3] [pmol/well]
OR2, Gd-DOTA-rGvvaGK(biotin)-rrrrrr (peptide)			10
OR1, Gd-DOTA-rGtvvaGK(biotin)-rrrrrr (peptide)			10
OR4, Gd-DOTA-rrrrrrGvvaGK(biotin)-r (peptide)		10	
